Test results as given in patent publication US20220218659.

Target: Human ACLY, His-tagged, bacterially expressed and purified recombinant full length protein (UniProt P53396)
Chain of UniProt P53396 (P53396 whole entry): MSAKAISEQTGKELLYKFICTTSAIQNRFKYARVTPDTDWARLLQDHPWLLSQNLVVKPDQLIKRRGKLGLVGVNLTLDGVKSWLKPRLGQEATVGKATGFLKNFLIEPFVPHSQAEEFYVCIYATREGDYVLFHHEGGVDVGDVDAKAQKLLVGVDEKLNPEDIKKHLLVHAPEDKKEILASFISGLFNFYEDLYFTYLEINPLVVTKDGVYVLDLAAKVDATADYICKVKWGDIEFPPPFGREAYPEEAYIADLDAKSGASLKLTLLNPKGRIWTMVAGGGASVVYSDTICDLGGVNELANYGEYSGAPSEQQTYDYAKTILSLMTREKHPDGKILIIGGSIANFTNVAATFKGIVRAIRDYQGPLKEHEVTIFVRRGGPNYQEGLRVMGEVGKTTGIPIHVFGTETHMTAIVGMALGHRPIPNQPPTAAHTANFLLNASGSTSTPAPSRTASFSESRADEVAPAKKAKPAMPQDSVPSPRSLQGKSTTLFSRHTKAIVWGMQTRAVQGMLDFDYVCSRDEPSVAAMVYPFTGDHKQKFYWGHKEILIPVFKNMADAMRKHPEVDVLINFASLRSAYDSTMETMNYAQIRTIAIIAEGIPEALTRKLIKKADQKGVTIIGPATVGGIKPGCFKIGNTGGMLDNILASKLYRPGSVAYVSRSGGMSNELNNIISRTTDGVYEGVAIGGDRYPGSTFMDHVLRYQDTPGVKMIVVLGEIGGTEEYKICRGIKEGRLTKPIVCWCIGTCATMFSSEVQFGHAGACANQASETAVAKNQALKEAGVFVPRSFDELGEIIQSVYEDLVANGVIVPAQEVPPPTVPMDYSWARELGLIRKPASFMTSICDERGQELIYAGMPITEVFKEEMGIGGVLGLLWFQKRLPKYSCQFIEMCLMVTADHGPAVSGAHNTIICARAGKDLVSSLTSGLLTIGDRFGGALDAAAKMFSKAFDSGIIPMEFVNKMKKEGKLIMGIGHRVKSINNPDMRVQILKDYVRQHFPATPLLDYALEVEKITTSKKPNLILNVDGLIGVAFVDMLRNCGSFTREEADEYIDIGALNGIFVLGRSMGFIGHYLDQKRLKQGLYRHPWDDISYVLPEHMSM

Active recombinant Src kinase
ACLY tyrosine residues phosphorylated (phosphoproteomics): The three ACLY tyrosine residues, Y682, Y252, Y227, were common for Lyn and Src
